We go through four molecules from PMC3930596, “Insights into the Initiation of JC Virus DNA Replication Derived from the Crystal Structure of the T-Antigen Origin Binding Domain”.

In series [1] the target is JCV T-antigen origin-binding domain (OBD; residues 132-261) (JC virus). The series can be described thus: crystal structure; crystal form 2, space group I4_(1), 2.6 Å; 0.1 M Tris pH 8.5, 0.2 M LiSO4, 30% PEG 4000, 4 C; contacts with symmetry mates.
For series [2] the target is unchanged. The series can be described thus: crystal structure; crystal form 1, space group C2, 1.64 Å, two molecules in the asymmetric unit; 0.1 M sodium citrate pH 5.6, 30% PEG 3350, 18 C; interfaces analysed with PISA.
Series [3] concerns the target JCV T-antigen origin-binding domain (residues 132-261) with tartrate-modified Lys168 (crystal form 3) (JC virus). In words: crystal structure; crystal form 3, space group P4_(1), 1.32 Å, one molecule in the asymmetric unit; 0.19 M sodium tartrate, 19% PEG 3350, 4 C; contacts with symmetry mates.
Series [4] has as its target T1, JCV T-antigen origin-binding domain (OBD) (JC virus (JCV), UniProt P03072 132-261).
T1 sequence: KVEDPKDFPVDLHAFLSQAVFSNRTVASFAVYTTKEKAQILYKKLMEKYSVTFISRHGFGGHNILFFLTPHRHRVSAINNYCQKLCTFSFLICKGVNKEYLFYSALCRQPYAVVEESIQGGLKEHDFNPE
In words: ITC; ITC (VP-ITC): 10 mM sodium phosphate pH 7.0, 50 mM NaCl; temperature not stated; OBD in syringe (~80 uM for Site II, 40 uM for Site I), DNA 1.5 uM / 1.0 uM. As to conditions: protein: recombinant; tags: N-terminal GST removed by thrombin; chain copies: 4; blunt. In general terms: In ITC the heat of successive injections is recorded.

The target of series [5] is T1, JCV T-antigen origin-binding domain …. In words: ITC; average of four titrations; titration shown in Fig. 4A ~278 nM; N = 4 OBDs per duplex; ITC (VP-ITC): 10 mM sodium phosphate pH 7.0, 50 mM NaCl; temperature not stated; OBD in syringe (~80 uM for Site II, 40 uM for Site I), DNA 1.5 uM / 1.0 uM. As to conditions: protein: recombinant; tags: N-terminal GST removed by thrombin; chain copies: 4; blunt.

A word on the stoichiometry N: it is a count of units in the complex or per binding partner. On to “JCV T-antigen origin-binding domain (OBD; residues 132-261) (domain or fragment)”, for which the stoichiometry N in series [1] and in series [2] was 4 each time.
The molecule “JCV T-antigen origin-binding domain (residues 132-261) with tartrate-modified Lys168 (crystal form 3) (domain or fragment)” came in with a stoichiometry N in series [3] of 4.

B1: JCV Site I 28 bp (dsDNA)
DNA 1: GCGTGGAGGCTTTTTAGGAGGCCAGGGA
DNA 2: TCCCTGGCCTCCTAAAAAGCCTCCACGC
The term Kd denotes the constant that tells how readily two partners part at equilibrium. Turning to B1, the Kd in series [4] came out at 18.3 nM.

B2: JCV Site II 33 bp (dsDNA)
DNA 1: TACAGGAGGCCGAGGCCGCCTCCGCCTCCAAGC
DNA 2: GCTTGGAGGCGGAGGCGGCCTCGGCCTCCTGTA
B2: in series [5], the Kd was 299 nM.
